Target: human ILT3 on cells (human) (UniProt Q8NHJ6)
Experiment: flow cytometry on THP1 cells, enumeration of the ILT3 antigen density with clone ZM4.1; unit not given

Sequence of human ILT3 on cells (human) (Q8NHJ6 22-448 D223G/Q414R): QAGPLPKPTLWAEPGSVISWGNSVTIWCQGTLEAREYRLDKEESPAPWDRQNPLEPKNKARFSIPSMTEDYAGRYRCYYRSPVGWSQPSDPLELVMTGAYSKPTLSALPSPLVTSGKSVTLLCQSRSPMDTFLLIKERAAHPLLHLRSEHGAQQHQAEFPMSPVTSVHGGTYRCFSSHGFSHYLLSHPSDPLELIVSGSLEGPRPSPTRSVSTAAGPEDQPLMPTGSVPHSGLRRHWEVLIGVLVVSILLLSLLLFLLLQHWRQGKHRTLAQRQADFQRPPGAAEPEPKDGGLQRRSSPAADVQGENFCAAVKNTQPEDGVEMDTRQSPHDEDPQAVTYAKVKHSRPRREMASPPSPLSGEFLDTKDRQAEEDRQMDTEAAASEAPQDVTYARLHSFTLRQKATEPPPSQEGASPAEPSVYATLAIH

mouse anti-ILT3 monoclonal antibody, clone ZM4.1
Ag density: 147000

Reference: patent US20220227863A1
